Here are results for 1 molecule from PMC9916714, “NMR Analysis Suggests Synergy between the RRM2 and the Carboxy-Terminal Segment of Human La Protein in the Recognition and Interaction with HCV IRES”.

Common to all, as to test: ITC; 50 mM KPi pH 7, 25 C; 50 mM KPi pH 7; ITC at 25 C (50 uM protein in cell, 500 uM RNA in syringe); NMR at 298 K, 0.1 mM protein, 90% H2O/10% D2O
Holding throughout (conditions): protein: recombinant; tags: IMAC tag (pET20b+; tag not specified)
(In general: In ITC the heat of successive injections is recorded.)

For one series, the target named is T1, La RRM2-Cter (Homo sapiens, UniProt P05455 225-408).
T1 sequence: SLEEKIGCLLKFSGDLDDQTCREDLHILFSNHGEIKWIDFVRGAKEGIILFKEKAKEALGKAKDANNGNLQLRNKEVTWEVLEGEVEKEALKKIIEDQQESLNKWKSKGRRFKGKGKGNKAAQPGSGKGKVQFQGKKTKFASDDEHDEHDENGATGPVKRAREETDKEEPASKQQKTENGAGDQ

The target in a further series is T2, La RRM1-RRM2-Cter (Homo sapiens, UniProt P05455 105-408).
T2 sequence: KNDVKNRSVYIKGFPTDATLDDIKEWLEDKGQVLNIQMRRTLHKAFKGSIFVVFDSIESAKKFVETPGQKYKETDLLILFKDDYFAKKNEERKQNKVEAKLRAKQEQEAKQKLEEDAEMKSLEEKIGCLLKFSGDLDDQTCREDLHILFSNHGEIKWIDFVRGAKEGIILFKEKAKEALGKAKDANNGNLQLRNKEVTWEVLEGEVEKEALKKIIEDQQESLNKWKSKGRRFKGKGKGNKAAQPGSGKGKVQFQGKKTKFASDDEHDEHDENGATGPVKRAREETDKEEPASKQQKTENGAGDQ

Another series has as its target T3, La RRM2-SBM (Homo sapiens, UniProt P05455 225-359).
T3 sequence: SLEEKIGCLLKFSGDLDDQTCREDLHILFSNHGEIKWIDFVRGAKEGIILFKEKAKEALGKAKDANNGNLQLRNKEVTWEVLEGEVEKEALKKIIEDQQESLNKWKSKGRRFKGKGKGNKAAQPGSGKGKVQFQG

For a further series, the target named is T4, La RRM1-RRM2-SBM (Homo sapiens, UniProt P05455 105-359).
T4 sequence: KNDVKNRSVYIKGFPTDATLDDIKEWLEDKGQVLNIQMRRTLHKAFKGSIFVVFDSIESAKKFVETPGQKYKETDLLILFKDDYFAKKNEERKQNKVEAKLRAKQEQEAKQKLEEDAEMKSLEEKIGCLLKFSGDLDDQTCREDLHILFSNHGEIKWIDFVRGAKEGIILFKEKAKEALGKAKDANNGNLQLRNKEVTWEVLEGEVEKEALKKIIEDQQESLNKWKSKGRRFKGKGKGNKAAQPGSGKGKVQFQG

As for AGACCGUGCACCAUGAGCACGAAUCCA (structured_RNA) [HCV-IRES domain IV], the dissociation constant (Kd) with La RRM2-Cter amounted to 15.3 ± 1.49 µM; with La RRM1-RRM2-Cter it was 9.76 ± 1.1 µM; in the series with La RRM2-SBM, 28.2 ± 1.21 µM; with La RRM1-RRM2-SBM, 10.3 ± 2.04 µM.

Usually Kd stands for the equilibrium constant for the complex coming apart.
